The target of series [1] is calsequestrin 2 (CSQ2, CASQ2) 19-399 (UniProt O14958). In words: Ca2+-dependent turbidity, absorbance at 350 nm. Conditions: reference: CSQ2 treated in tandem without Fam20C; sites S385.
Series [2] deals with the molecule itself. In words: turbidity assay; 4.5 uM phosphorylated or unphosphorylated His-CASQ2, 10 mM Tris-HCl pH 7.0, 10% glycerol, CaCl2 at the concentrations indicated; 30 min at room temperature; absorbance at 350 nm.

The record followed here is article PMC6298778, “A secretory pathway kinase regulates sarcoplasmic reticulum Ca^2+ homeostasis and protects against heart failure” (eLife, 2018).

On to “calsequestrin 2 (CSQ2, CASQ2) 19-399 (from UniProt O14958) CSQ2 phosphorylated in vitro by Fam20C”, for which the “binding against the reference” value in series [1] is listed as “stronger”.

B1: calsequestrin 2 (CSQ2), phosphorylated in vitro by Fam20C, His-tagged (natural protein, human, UniProt O14958 19-399, looked up)
chain: AEEGLNFPTYDGKDRVVSLSEKNFKQVLKKYDLLCLYYHEPVSSDKVTQKQFQLKEIVLELVAQVLEHKAIGFVMVDAKKEAKLAKKLGFDEEGSLYILKGDRTIEFDGEFAADVLVEFLLDLIEDPVEIISSKLEVQAFERIEDYIKLIGFFKSEDSEYYKAFEEAAEHFQPYIKFFATFDKGVAKKLSLKMNEVDFYEPFMDEPIAIPNKPYTEEELVEFVKEHQRPTLRRLRPEEMFETWEDDLNGIHIVAFAEKSDPDGYEFLEILKQVARDNTDNPDLSILWIDPDDFPLLVAYWEKTFKIDLFRPQIGVVNVTDADSVWMEIPDDDDLPTAEELEDWIEDVLSGKINTEDDDEDDDDDDNSDEEDNDDSDDDDDE
modifications: phosphoserine at 385 (phosphorylated in vitro by Fam20C; saturated phosphorylation >95%)
notes: also called phosphorylated CSQ2; phosphorylated His-CASQ2; source: E. coli BL21 (DE3)-RILP, purified (Ni-NTA), phosphorylated in vitro by Fam20C, then size exclusion chromatography; not shown: His6, C-terminal, kept
On to B1, for which, in series [2], the binding result is “binds”.

B2: calsequestrin 2 (CSQ2), unphosphorylated, His-tagged (natural protein, human, UniProt O14958 19-399, looked up)
chain: AEEGLNFPTYDGKDRVVSLSEKNFKQVLKKYDLLCLYYHEPVSSDKVTQKQFQLKEIVLELVAQVLEHKAIGFVMVDAKKEAKLAKKLGFDEEGSLYILKGDRTIEFDGEFAADVLVEFLLDLIEDPVEIISSKLEVQAFERIEDYIKLIGFFKSEDSEYYKAFEEAAEHFQPYIKFFATFDKGVAKKLSLKMNEVDFYEPFMDEPIAIPNKPYTEEELVEFVKEHQRPTLRRLRPEEMFETWEDDLNGIHIVAFAEKSDPDGYEFLEILKQVARDNTDNPDLSILWIDPDDFPLLVAYWEKTFKIDLFRPQIGVVNVTDADSVWMEIPDDDDLPTAEELEDWIEDVLSGKINTEDDDEDDDDDDNSDEEDNDDSDDDDDE
notes: Control sample of the turbidity assay: same treatment as the phosphorylated protein but without Fam20C; also called CASQ2; His-CASQ2; source: E. coli BL21 (DE3)-RILP, purified (Ni-NTA, size exclusion chromatography); treated in tandem without Fam20C; not shown: His6, C-terminal, kept
With B2, in series [2], the binding result is “binds”.
